Columns and labels:
[1] = biological target: IL-18BP (Homo sapiens) (UniProt O95998); conditions: cited from earlier work
[2] = biological target: mouse IL-18 binding protein (mouse) (UniProt Q9Z0M9); assay: SPR
Chain of mouse IL-18 binding protein (mouse) (Q9Z0M9 31-193): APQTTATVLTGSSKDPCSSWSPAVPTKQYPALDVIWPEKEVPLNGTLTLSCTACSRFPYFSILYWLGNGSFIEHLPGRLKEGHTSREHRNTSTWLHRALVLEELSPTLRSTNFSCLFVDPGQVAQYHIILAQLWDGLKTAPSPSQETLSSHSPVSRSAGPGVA

Chain of IL-18 (Q14116 37-193): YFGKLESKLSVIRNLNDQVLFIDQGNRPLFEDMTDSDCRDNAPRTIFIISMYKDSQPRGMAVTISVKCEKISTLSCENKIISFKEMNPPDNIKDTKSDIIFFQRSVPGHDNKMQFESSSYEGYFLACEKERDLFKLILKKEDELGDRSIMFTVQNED
Chain of IL-18BP (Homo sapiens) (O95998 31-194): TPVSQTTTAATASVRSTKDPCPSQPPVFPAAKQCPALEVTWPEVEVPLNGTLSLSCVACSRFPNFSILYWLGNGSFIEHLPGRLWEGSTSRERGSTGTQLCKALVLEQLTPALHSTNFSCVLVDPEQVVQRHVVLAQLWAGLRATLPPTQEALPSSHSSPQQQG

IL-18 (from UniProt Q14116)
Kd [1]: < 0.001 µM

decoy-resistant IL-18 variant CS2 (consensus sequence 2), DR-18 (from UniProt P70380 37-192) (ligand)
Kd [2]: > 10 µM
